Columns and labels:
Assay in all cases: ITC
[1] = biological target: human activated factor X (Homo sapiens) (UniProt P00742)
[2] = biological target: human factor X (zymogen) (Homo sapiens) (UniProt P00742)
[3] = biological target: human activated factor IX (Homo sapiens) (UniProt P00740)
[4] = biological target: human factor IX (zymogen) (Homo sapiens) (UniProt P00740)
human factor IX (zymogen) (Homo sapiens), sequence (P00740 47-461): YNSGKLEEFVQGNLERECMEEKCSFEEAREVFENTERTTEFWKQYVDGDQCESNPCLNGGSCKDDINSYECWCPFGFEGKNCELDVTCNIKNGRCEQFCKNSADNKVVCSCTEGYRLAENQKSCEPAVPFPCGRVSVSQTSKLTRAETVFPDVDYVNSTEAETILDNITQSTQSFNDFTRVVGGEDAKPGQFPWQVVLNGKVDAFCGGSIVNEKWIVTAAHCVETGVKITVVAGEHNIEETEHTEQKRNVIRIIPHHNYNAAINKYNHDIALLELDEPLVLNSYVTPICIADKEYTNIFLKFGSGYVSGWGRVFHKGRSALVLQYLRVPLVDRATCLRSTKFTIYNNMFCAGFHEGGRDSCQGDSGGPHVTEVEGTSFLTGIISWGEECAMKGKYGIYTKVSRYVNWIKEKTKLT

human activated factor X (Homo sapiens), sequence (P00742 235-488, chain 1 of 2): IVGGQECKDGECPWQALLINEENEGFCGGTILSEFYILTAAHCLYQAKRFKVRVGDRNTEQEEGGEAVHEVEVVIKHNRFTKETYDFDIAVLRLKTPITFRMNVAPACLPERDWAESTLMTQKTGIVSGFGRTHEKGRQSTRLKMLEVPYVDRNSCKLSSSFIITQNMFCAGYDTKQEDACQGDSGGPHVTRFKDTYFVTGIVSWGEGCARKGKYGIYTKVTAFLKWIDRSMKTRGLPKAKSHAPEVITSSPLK
human activated factor X (Homo sapiens), sequence (P00742 235-488, chain 2 of 2): as the sequence (P00742 235-488, chain 1 of 2) above
human factor X (zymogen) (Homo sapiens), sequence (P00742 whole entry, looked up): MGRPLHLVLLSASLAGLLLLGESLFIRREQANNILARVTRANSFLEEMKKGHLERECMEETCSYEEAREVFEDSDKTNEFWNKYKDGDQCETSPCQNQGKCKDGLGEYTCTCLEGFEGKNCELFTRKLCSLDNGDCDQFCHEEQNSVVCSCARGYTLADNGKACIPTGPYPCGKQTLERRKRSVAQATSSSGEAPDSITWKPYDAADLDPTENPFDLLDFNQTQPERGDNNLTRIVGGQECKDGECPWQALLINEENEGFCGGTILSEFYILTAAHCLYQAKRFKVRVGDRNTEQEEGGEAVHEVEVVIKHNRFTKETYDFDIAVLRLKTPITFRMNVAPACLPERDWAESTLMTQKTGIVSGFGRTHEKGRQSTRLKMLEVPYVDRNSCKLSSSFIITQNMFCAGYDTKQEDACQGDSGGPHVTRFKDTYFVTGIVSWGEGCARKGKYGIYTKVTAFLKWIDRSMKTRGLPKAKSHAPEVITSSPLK
human activated factor IX (Homo sapiens), sequence (P00740 47-191, chain 1 of 2): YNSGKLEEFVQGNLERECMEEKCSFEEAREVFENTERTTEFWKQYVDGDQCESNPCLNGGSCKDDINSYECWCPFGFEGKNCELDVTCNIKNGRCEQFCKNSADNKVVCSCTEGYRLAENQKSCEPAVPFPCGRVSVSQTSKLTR
human activated factor IX (Homo sapiens), sequence (P00740 227-461, chain 2 of 2): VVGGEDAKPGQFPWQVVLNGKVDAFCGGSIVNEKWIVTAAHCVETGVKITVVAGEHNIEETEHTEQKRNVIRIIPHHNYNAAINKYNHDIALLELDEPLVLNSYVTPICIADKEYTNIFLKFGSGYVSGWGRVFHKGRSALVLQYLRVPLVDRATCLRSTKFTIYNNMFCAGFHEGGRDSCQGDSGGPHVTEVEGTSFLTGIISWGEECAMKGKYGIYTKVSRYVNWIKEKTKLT

Substance: Mim8 (bispecific antibody)
- Kd [1]: 300 nM
- Kd [2]: 1500 nM
- Kd [3]: 2300 nM
- Kd [4]: 4700 nM

— article PMC8499050
